Test [1] concerns the target Bax_(C87(C62S, C126S)) labeled with maleimide gem-diethyl nitroxide (MAG) (human) (UniProt Q07812). Put plainly: DEER (double electron-electron resonance, EPR); inactive Bax in buffer (aqueous solution) with 50% v/v glycerol-d8, flash frozen; Q-band 4-pulse DEER, NO-NO at 50 K, Gd-Gd at 10 K; one labeled variant per sample.
Test [2] deals with Bax_(C87(C62S, C126S)) labeled with maleimide Gd-DOTA (human) (UniProt Q07812). The description is as above.
Test [3] has as its target T1, Bax wild type labeled with MTSL at cysteines 62 and 126 (human, UniProt Q07812 1-192, MTSL nitroxide spin label (R1) on the native cysteines 62 and 126).
T1 construct: Bax, human, full length; two native cysteines at positions 62 and 126; also called Bax_(WTR1); source: E. coli (BL21/RIPL/pTYB1-Bax), purified; labeled with MTSL
Put plainly: DEER (double electron-electron resonance, EPR); two Bax variants mixed before oligomerization (3-fold excess of unlabeled BaxWT or of Bax_(C87Gd) over nitroxide-labeled BaxWT), activated with cBid and MOM-like liposomes, pellet fraction; NO-NO (50 K), NO-Gd (10 K) and Gd-Gd (10 K) DEER channels on the same sample. Conditions: both partners purified.

The target in test [4] is T2, Bax wild type labeled with iodacetamide gem-diethyl nitroxide (IAG) (human, UniProt Q07812 1-192, IAG (iodacetamide gem-diethyl nitroxide) spin label on the native cysteines 62 and 126).
T2 construct: Bax, human, full length; two native cysteines at positions 62 and 126; also called Bax_(WTIAG); source: E. coli (BL21/RIPL/pTYB1-Bax), purified; labeled with IAG
The test is described as above. To be noted: both partners purified.

A value given as a limit tells only on which side of the number the result lay.

On to “Bax_(C87(C62S, C126S)) labeled with maleimide gem-diethyl nitroxide (MAG) (from UniProt Q07812 1-192) (natural protein)”, for which the fraction of dimeric protein in solution in test [1] was under 10%.

B1: Bax_(C87(C62S, C126S)) labeled with maleimide Gd-DOTA (natural protein, human, UniProt Q07812 1-192, looked up)
chain: MDGSGEQPRGGGPTSSEQIMKTGALLLQGFIQDRAGRMGGEAPELALDPVPQDASTKKLSESLKRIGDELDSNMELQRMIAAVDTDCPREVFFRVAADMFSDGNFNWGRVVALFYFASKLVLKALSTKVPELIRTIMGWTLDFLRERLLGWIQDQGGWDGLLSYFGTPTWQTVTIFVAGVLTASLTIWKKMG
modifications: maleimide Gd-DOTA spin label on cysteine 87
notes: Bax, human, full length, single surface-exposed cysteine at position 87; also called Bax_(C87Gd); source: E. coli, purified in the same way as the wild type protein; labeled with maleimide Gd-DOTA
B1: the fraction of dimeric protein in solution in test [2] was under 10%. In addition, the binding result in test [3] and in test [4] was “binds” in each case.

The values are drawn from PMC6737250, “A new perspective on membrane-embedded Bax oligomers using DEER and bioresistant orthogonal spin labels” (Scientific Reports, 2019).
